*1 amine or outer side, *2 acyl side, *3 side chain or, on linkers, in order; H or OH if unused. Side-chain parts run from the residue outwards. The star is where a group is joined. C18 diacid = O=C(O)CCCCCCCCCCCCCCCCC(=O)*; γGlu = O=C(O)[C@H](CCC(=O)[*:2])N[*:1]; Isovaleryl = CC(C)CC(=O)*; AEEA = NCCOCCOCC(=O)O
T1: human neuropeptide Y2 receptor (human, UniProt P49146 1-381)
T1 construct: whole, on cells; also called hNPY2 receptor; hNPY2-R
T1 sequence (looked up): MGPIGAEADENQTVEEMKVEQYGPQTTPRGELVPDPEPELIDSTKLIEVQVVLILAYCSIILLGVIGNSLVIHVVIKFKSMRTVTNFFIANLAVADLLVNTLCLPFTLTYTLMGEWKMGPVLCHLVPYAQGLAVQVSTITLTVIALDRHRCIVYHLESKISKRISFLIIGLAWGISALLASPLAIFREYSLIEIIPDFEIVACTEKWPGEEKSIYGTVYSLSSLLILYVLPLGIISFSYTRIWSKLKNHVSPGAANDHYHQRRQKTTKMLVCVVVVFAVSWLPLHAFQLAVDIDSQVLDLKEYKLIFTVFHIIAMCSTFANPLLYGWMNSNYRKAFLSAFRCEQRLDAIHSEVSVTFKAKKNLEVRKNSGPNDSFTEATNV

B1: Compound 51 (peptide)
peptide: Isovaleryl-APEK([AEEA-AEEA-γGlu-C18 diacid])AEEEASPEELQRYYVSLRHYYNWLTRQRY-NH2
SMILES: CC(C)CC(=O)N[C@@H](C)C(=O)N1CCC[C@H]1C(=O)N[C@@H](CCC(=O)O)C(=O)N[C@@H](CCCCNC(=O)COCCOCCNC(=O)COCCOCCNC(=O)CC[C@H](NC(=O)CCCCCCCCCCCCCCCCC(=O)O)C(=O)O)C(=O)N[C@@H](C)C(=O)N[C@@H](CCC(=O)O)C(=O)N[C@@H](CCC(=O)O)C(=O)N[C@@H](CCC(=O)O)C(=O)N[C@@H](C)C(=O)N[C@@H](CO)C(=O)N1CCC[C@H]1C(=O)N[C@@H](CCC(=O)O)C(=O)N[C@@H](CCC(=O)O)C(=O)N[C@@H](CC(C)C)C(=O)N[C@@H](CCC(N)=O)C(=O)N[C@@H](CCCNC(=N)N)C(=O)N[C@@H](Cc1ccc(O)cc1)C(=O)N[C@@H](Cc1ccc(O)cc1)C(=O)N[C@H](C(=O)N[C@@H](CO)C(=O)N[C@@H](CC(C)C)C(=O)N[C@@H](CCCNC(=N)N)C(=O)N[C@@H](Cc1c[nH]cn1)C(=O)N[C@@H](Cc1ccc(O)cc1)C(=O)N[C@@H](Cc1ccc(O)cc1)C(=O)N[C@@H](CC(N)=O)C(=O)N[C@@H](Cc1c[nH]c2ccccc12)C(=O)N[C@@H](CC(C)C)C(=O)N[C@H](C(=O)N[C@@H](CCCNC(=N)N)C(=O)N[C@@H](CCC(N)=O)C(=O)N[C@@H](CCCNC(=N)N)C(=O)N[C@@H](Cc1ccc(O)cc1)C(N)=O)[C@@H](C)O)C(C)C
B2: Compound 52 (peptide)
peptide: Isovaleryl-APEK([AEEA-AEEA-γGlu-C18 diacid])AEEDASEEELQRYYVSLRHYYNWLTRQRY-NH2
SMILES: CC(C)CC(=O)N[C@@H](C)C(=O)N1CCC[C@H]1C(=O)N[C@@H](CCC(=O)O)C(=O)N[C@@H](CCCCNC(=O)COCCOCCNC(=O)COCCOCCNC(=O)CC[C@H](NC(=O)CCCCCCCCCCCCCCCCC(=O)O)C(=O)O)C(=O)N[C@@H](C)C(=O)N[C@@H](CCC(=O)O)C(=O)N[C@@H](CCC(=O)O)C(=O)N[C@@H](CC(=O)O)C(=O)N[C@@H](C)C(=O)N[C@@H](CO)C(=O)N[C@@H](CCC(=O)O)C(=O)N[C@@H](CCC(=O)O)C(=O)N[C@@H](CCC(=O)O)C(=O)N[C@@H](CC(C)C)C(=O)N[C@@H](CCC(N)=O)C(=O)N[C@@H](CCCNC(=N)N)C(=O)N[C@@H](Cc1ccc(O)cc1)C(=O)N[C@@H](Cc1ccc(O)cc1)C(=O)N[C@H](C(=O)N[C@@H](CO)C(=O)N[C@@H](CC(C)C)C(=O)N[C@@H](CCCNC(=N)N)C(=O)N[C@@H](Cc1c[nH]cn1)C(=O)N[C@@H](Cc1ccc(O)cc1)C(=O)N[C@@H](Cc1ccc(O)cc1)C(=O)N[C@@H](CC(N)=O)C(=O)N[C@@H](Cc1c[nH]c2ccccc12)C(=O)N[C@@H](CC(C)C)C(=O)N[C@H](C(=O)N[C@@H](CCCNC(=N)N)C(=O)N[C@@H](CCC(N)=O)C(=O)N[C@@H](CCCNC(=N)N)C(=O)N[C@@H](Cc1ccc(O)cc1)C(N)=O)[C@@H](C)O)C(C)C

Target: T1, human neuropeptide Y2 receptor
Test: radioligand competition (125I-PYY(1-36)), hNPY2R membranes
Procedure, shortened: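 Commercial human Y2 receptor membranes (0.5 μg protein/well) were incubated with peptide for 2 h at room temperature in 50 mM HEPES, 5 mM MgCl₂, 1 mM CaCl₂, pH 7.4, with 0.2% ovalbumin. Bound radioligand was separated on PEI-soaked GF/C filters and counted by scintillation, and IC₅₀ came from nonlinear sigmoidal regression.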

| Binder | Ki |
| --- | --- |
| B1 | 39.4 nM |
| B2 | 8.53 nM |

From patent publication US20210139548A1 (published 2021)
